We go through 24 molecules from patent US20230293638A1 (Eli Lilly, published 2023).

Numbered stars: 1 amine (or outer) side, 2 acyl side, 3 side chain; on linkers, the order of the positions; unused ones are H or OH. Square brackets hold non-standard residues; d marks the D form. Side chains are listed from the residue outwards. Ends that are not written are not given here. * marks the point of attachment. C20 diacid = O=C(O)CCCCCCCCCCCCCCCCCCC(=O)*; γGlu = O=C(O)[C@H](CCC(=O)[*:2])N[*:1]; AEEA = NCCOCCOCC(=O)O; Aib = CC(C)(N)C(=O)O

The labels stand for the following.
T1: human gastric inhibitory peptide receptor (human, UniProt P48546 22-466)
T1 sequence (looked up): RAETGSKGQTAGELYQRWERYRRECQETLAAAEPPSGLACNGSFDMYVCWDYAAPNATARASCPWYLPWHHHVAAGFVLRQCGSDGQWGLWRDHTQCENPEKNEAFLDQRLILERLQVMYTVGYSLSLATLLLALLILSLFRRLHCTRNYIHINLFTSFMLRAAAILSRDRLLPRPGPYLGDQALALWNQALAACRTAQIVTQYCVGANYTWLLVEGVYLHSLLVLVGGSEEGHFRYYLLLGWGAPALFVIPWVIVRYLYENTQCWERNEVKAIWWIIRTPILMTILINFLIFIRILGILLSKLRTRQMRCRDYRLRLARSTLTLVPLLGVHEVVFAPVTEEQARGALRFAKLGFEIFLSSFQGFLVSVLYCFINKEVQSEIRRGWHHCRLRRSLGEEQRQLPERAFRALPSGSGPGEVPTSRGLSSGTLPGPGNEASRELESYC

B1: Peptide 265 (peptide)
peptide: YXEGTXTSDXSIXLDXKAQXEFIXXLIEGG
modifications: Aib2; αMeF(2F)6; 4Pal10; αMeL13; Orn16; K17((2-[2-(2-Amino-ethoxy)-ethoxy]-acetyl)2-(γGlu)-CO-(CH2)16-CO2H); Aib20; D-Glu24; αMeY25; C-terminal NH2
B2: Peptide 103 (peptide)
peptide: YXEGTXTSDYSIXLDEKAQXEFIEYLIEGG
modifications: Aib2; αMeF(2F)6; αMeL13; K17((2-[2-(2-Amino-ethoxy)-ethoxy]-acetyl)2-(γGlu)-CO-(CH2)18-CO2H); Aib20; C-terminal NH2
B3: Peptide 99 (peptide)
peptide: YXEGTXTSDYSIXLDKKAQXAFIEYLIEGG
modifications: Aib2; αMeF6; αMeL13; K17((2-[2-(2-Amino-ethoxy)-ethoxy]-acetyl)2-(γGlu)-CO-(CH2)18-CO2H); Aib20; C-terminal NH2
B4: Peptide 62 (peptide)
peptide: YXEGTFTSDYSIXLDKKAQXAFIEYLIEGG
modifications: Aib2; αMeL13; K17((2-[2-(2-Amino-ethoxy)-ethoxy]-acetyl)2-(γGlu)-CO-(CH2)18-CO2H); Aib20; C-terminal NH2
B5: Peptide 104 (peptide)
peptide: YXEGTXTSDYSIXLDEKAQXEFIEYLIEGG
modifications: Aib2; αMeF(2F)6; αMeL13; K17((2-[2-(2-Amino-ethoxy)-ethoxy]-acetyl)2-(γGlu)-CO-(CH2)16-CO2H); Aib20; C-terminal NH2
B6: Peptide 52 (peptide)
peptide: YXEGTFTSDYSIXLDSKAQXAFIEYLIEGGPSSGAPPPS
modifications: Aib2; αMeL13; K17((2-[2-(2-Amino-ethoxy)-ethoxy]-acetyl)2-(γGlu)-CO-(CH2)18-CO2H); Aib20; C-terminal NH2
B7: Peptide 66 (peptide)
peptide: YXEGTFTSDYSIXLDEKAQXAFIEYLLEGGPSSGAPPPS
modifications: Aib2; αMeL13; K17((2-[2-(2-Amino-ethoxy)-ethoxy]-acetyl)2-(γGlu)-CO-(CH2)18-CO2H); Aib20; C-terminal NH2
B8: Peptide 81 (peptide)
peptide: YXEGTFTSDYXILLDKKAQXAFIEYLIEGGPSSGAPPPS
modifications: Aib2; D-Ser11; K17((2-[2-(2-Amino-ethoxy)-ethoxy]-acetyl)2-(γGlu)-CO-(CH2)18-CO2H); Aib20; C-terminal NH2
B9: Peptide 89 (peptide)
peptide: YXXGTFTSDYSILLDKKAQXAFIEYLIEGGPSSGAPPPS
modifications: Aib2; Aad3; K17((2-[2-(2-Amino-ethoxy)-ethoxy]-acetyl)2-(γGlu)-CO-(CH2)18-CO2H); Aib20; C-terminal NH2
B10: Peptide 60 (peptide)
peptide: YXEGTFTSDYSIXLDXKAQXAFIEYLIEGGPSSGAPPPS
modifications: Aib2; αMeL13; Aib16; K17((2-[2-(2-Amino-ethoxy)-ethoxy]-acetyl)2-(γGlu)-CO-(CH2)18-CO2H); Aib20; C-terminal NH2
B11: Peptide 68 (peptide)
peptide: YXEGTFTSDYXILLDKKAQXAFIEYLIEGGPSSGAPPPS
modifications: Aib2; αMeS11; K17((2-[2-(2-Amino-ethoxy)-ethoxy]-acetyl)2-(γGlu)-CO-(CH2)18-CO2H); Aib20; C-terminal NH2
B12: Peptide 69 (peptide)
peptide: YXEGTXTSDYSIXLDKKAQXAFIEYLIEGGPSSGAPPPS
modifications: Aib2; αMeF6; αMeL13; K17((2-[2-(2-Amino-ethoxy)-ethoxy]-acetyl)2-(γGlu)-CO-(CH2)18-CO2H); Aib20; C-terminal NH2
B13: Peptide 83 (peptide)
peptide: YXEGTFTSDYSILLDKKAQXAFIEYLIXGGPSSGAPPPS
modifications: Aib2; K17((2-[2-(2-Amino-ethoxy)-ethoxy]-acetyl)2-(γGlu)-CO-(CH2)18-CO2H); Aib20; D-Glu28; C-terminal NH2
B14: Peptide 84 (peptide)
peptide: YXEGTFTSDYSILLDKKAQXAFIXYLIEGGPSSGAPPPS
modifications: Aib2; K17((2-[2-(2-Amino-ethoxy)-ethoxy]-acetyl)2-(γGlu)-CO-(CH2)18-CO2H); Aib20; D-Glu24; C-terminal NH2
B15: Peptide 3 (peptide)
peptide: YXEGTXTSDYSIXLDXKAQXEFIXYLIEGGPSSGAPPPS
modifications: Aib2; αMeF(2F)6; αMeL13; Orn16; K17((2-[2-(2-Amino-ethoxy)-ethoxy]-acetyl)2-(γGlu)-CO-(CH2)18-CO2H); Aib20; D-Glu24; C-terminal NH2
B16: Peptide 65 (peptide)
peptide: YXEGTFTSDYSIXLDTKAQXAFIEYLIEGG
modifications: Aib2; αMeL13; K17((2-[2-(2-Amino-ethoxy)-ethoxy]-acetyl)2-(γGlu)-CO-(CH2)18-CO2H); Aib20; C-terminal NH2
B17: Peptide 51 (peptide)
peptide: Y[Aib]EGTFTSDYSILLDKK([AEEA-AEEA-γGlu-C20 diacid])AQ[Aib]AFIEYLIEGG-NH2
modifications: N-terminus assumed
SMILES: CC[C@H](C)[C@H](NC(=O)[C@H](CC(C)C)NC(=O)[C@H](Cc1ccc(O)cc1)NC(=O)[C@H](CCC(=O)O)NC(=O)[C@@H](NC(=O)[C@H](Cc1ccccc1)NC(=O)[C@H](C)NC(=O)C(C)(C)NC(=O)[C@H](CCC(N)=O)NC(=O)[C@H](C)NC(=O)[C@H](CCCCNC(=O)COCCOCCNC(=O)COCCOCCNC(=O)CC[C@H](NC(=O)CCCCCCCCCCCCCCCCCCC(=O)O)C(=O)O)NC(=O)[C@H](CCCCN)NC(=O)[C@H](CC(=O)O)NC(=O)[C@H](CC(C)C)NC(=O)[C@H](CC(C)C)NC(=O)[C@@H](NC(=O)[C@H](CO)NC(=O)[C@H](Cc1ccc(O)cc1)NC(=O)[C@H](CC(=O)O)NC(=O)[C@H](CO)NC(=O)[C@@H](NC(=O)[C@H](Cc1ccccc1)NC(=O)[C@@H](NC(=O)CNC(=O)[C@H](CCC(=O)O)NC(=O)C(C)(C)NC(=O)[C@@H](N)Cc1ccc(O)cc1)[C@@H](C)O)[C@@H](C)O)[C@@H](C)CC)[C@@H](C)CC)C(=O)N[C@@H](CCC(=O)O)C(=O)NCC(=O)NCC(N)=O
B18: Peptide 63 (peptide)
peptide: YXEGTFTSDYSIXLDEKAQXAFIEYLIEGG
modifications: Aib2; αMeL13; K17((2-[2-(2-Amino-ethoxy)-ethoxy]-acetyl)2-(γGlu)-CO-(CH2)18-CO2H); Aib20; C-terminal NH2
B19: Peptide 64 (peptide)
peptide: YXEGTFTSDYSIXLDSKAQXAFIEYLIEGG
modifications: Aib2; αMeL13; K17((2-[2-(2-Amino-ethoxy)-ethoxy]-acetyl)2-(γGlu)-CO-(CH2)18-CO2H); Aib20; C-terminal NH2
B20: Peptide 4 (peptide)
peptide: YXEGTXTSDXSIXLDXKAQXEFIXXLIEGGPSSGAPPPS
modifications: Aib2; αMeF(2F)6; 4Pal10; αMeL13; Orn16; K17((2-[2-(2-Amino-ethoxy)-ethoxy]-acetyl)2-(γGlu)-CO-(CH2)16-CO2H); Aib20; D-Glu24; αMeY25; C-terminal NH2
B21: Peptide 97 (peptide)
peptide: YXEGTFTSDYSIXLDKIAQXAFIEYLIKGG
modifications: Aib2; αMeL13; Aib20; K28((2-[2-(2-Amino-ethoxy)-ethoxy]-acetyl)2-(γGlu)-CO-(CH2)18-CO2H); C-terminal NH2
B22: Peptide 98 (peptide)
peptide: YXEGTXTSDYSILLDKKAQXAFIEYLIEGG
modifications: Aib2; αMeF6; K17((2-[2-(2-Amino-ethoxy)-ethoxy]-acetyl)2-(γGlu)-CO-(CH2)18-CO2H); Aib20; C-terminal NH2
B23: Peptide 95 (peptide)
peptide: YXEGTXTSDYSILLDKIAQXAFIEYLIKGG
modifications: Aib2; αMeF6; Aib20; K28((2-[2-(2-Amino-ethoxy)-ethoxy]-acetyl)2-(γGlu)-CO-(CH2)18-CO2H); C-terminal NH2
B24: Peptide 73 (peptide)
peptide: Y[Aib]EGTFTSDYSILLDKIAQ[Aib]AFIEYLIK([AEEA-AEEA-γGlu-C20 diacid])GG-NH2
modifications: N-terminus assumed
SMILES: CC[C@H](C)[C@H](NC(=O)[C@H](CCCCN)NC(=O)[C@H](CC(=O)O)NC(=O)[C@H](CC(C)C)NC(=O)[C@H](CC(C)C)NC(=O)[C@@H](NC(=O)[C@H](CO)NC(=O)[C@H](Cc1ccc(O)cc1)NC(=O)[C@H](CC(=O)O)NC(=O)[C@H](CO)NC(=O)[C@@H](NC(=O)[C@H](Cc1ccccc1)NC(=O)[C@@H](NC(=O)CNC(=O)[C@H](CCC(=O)O)NC(=O)C(C)(C)NC(=O)[C@@H](N)Cc1ccc(O)cc1)[C@@H](C)O)[C@@H](C)O)[C@@H](C)CC)C(=O)N[C@@H](C)C(=O)N[C@@H](CCC(N)=O)C(=O)NC(C)(C)C(=O)N[C@@H](C)C(=O)N[C@@H](Cc1ccccc1)C(=O)N[C@H](C(=O)N[C@@H](CCC(=O)O)C(=O)N[C@@H](Cc1ccc(O)cc1)C(=O)N[C@@H](CC(C)C)C(=O)N[C@H](C(=O)N[C@@H](CCCCNC(=O)COCCOCCNC(=O)COCCOCCNC(=O)CC[C@H](NC(=O)CCCCCCCCCCCCCCCCCCC(=O)O)C(=O)O)C(=O)NCC(=O)NCC(N)=O)[C@@H](C)CC)[C@@H](C)CC

For the first test, the target named is T1, human gastric inhibitory peptide …. The test can be described thus: cell-based or functional assay.
B1: the “hGIPR cAMP EC50 ratio” value is 9.77.

The next test addresses human GLP-1 receptor (human, UniProt P43220 24-463). Description: cell-based or functional assay.
On to B2, for which the “hGLPIR cAMP EC50 ratio” value is 0.655.
Same read-out and setting: as for B1, the figure is 3.27.
As for B3, the “hGLPIR cAMP EC50 ratio” value was 0.629.
Consider B4, for which the “hGLPIR cAMP EC50 ratio” value was found to be 0.463.
The same measure, in the same setting: as for B5, the figure is 1.85; as for B6, 0.514; as for B7, 0.255.
Take B8: the “hGLPIR cAMP EC50 ratio” value came out at 0.063.
For B9, the “hGLPIR cAMP EC50 ratio” value is 0.175.
Still for that read-out and setting: as for B10, the figure is 0.237.
On to B11, for which the “hGLPIR cAMP EC50 ratio” value was 0.354.
The same measure, in the same setting: as for B12, the figure is 0.85; as for B13, 0.166.
As to B14, the “hGLPIR cAMP EC50 ratio” value amounted to 0.173.
Same read-out and setting: as for B15, the figure is 1.25; as for B16, 0.233; as for B17, 0.426.
For the molecule B18, the “hGLPIR cAMP EC50 ratio” value came out at 0.386.
Consider B19, for which the “hGLPIR cAMP EC50 ratio” value stood at 0.429.
Still for that read-out and setting: as for B20, the figure is 1.41.
B21: the “hGLPIR cAMP EC50 ratio” value came to 0.0268.
On the same count and under the same terms, as for B22, the figure is 0.384.
As to B23, the “hGLPIR cAMP EC50 ratio” value stood at 0.0576.
Same read-out and setting: as for B24, the figure is 0.0225.
